From publication PMC5776806

Target: extracellular soluble part of EGFR (sEGFR) (UniProt P00533)
Assay: SPR

Substance: EGF (ligand)
- Kd: 60 nM
